{"source": "paper PMC8795592", "about": "“Human Dermcidin Protects Mice Against Hepatic Ischemia-Reperfusion–Induced Local and Remote Inflammatory Injury” (Frontiers in Immunology, 2021)", "key": {"[1]": {"molecular_target": "T1, recombinant EGFR corresponding to the extracellular domain (residue 25-645) (human, UniProt P00533 25-645)", "T1 construct": "epidermal growth factor receptor (EGFR), human, extracellular domain, residues 25-645; also called extracellular domain of human EGFR; epidermal growth factor receptor; source: bought: RayBiotech", "assay": "SPR; Biacore T200; DCD immobilised on CM5 chip; EGFR extracellular domain applied as analyte at 5 concentrations; KD by Biacore evaluation software 2.0 supposing a 1:1 binding ratio", "settings": "both partners purified"}, "[2]": {"molecular_target": "the molecule itself", "assay": "SDS-PAGE with and without DTT; purified recombinant His-tagged protein run on SDS-PAGE in the presence or absence of the reducing agent dithiothreitol; shows disulfide-linked (covalent) dimers only"}, "[3]": {"molecular_target": "T1, recombinant EGFR corresponding to the …", "assay": "SPR; Nicoya Lifesciences OpenSPR (gold nanoparticles); DCD or DCD-C34S with 6×His tag immobilised on NTA sensor chip; EGFR extracellular domain applied as analyte at three concentrations; KD by Trace Drawer Kinetic Data Analysis v.1.6.1", "settings": "both partners purified"}}}
{"binder": "recombinant human dermcidin (full-length DCD precursor, residue 20-110) with N-terminal 6×His tag (natural protein, UniProt P81605 20-110, looked up, dermcidin (DCD), human, residues 20-110, without the N-terminal 19-aa signal leader peptide (residue 1-19); one sentence of the methods says residue 20-100; Without a reducing agent the preparation is a mixture of monomers and disulfide-linked dimers (through Cys34); results and legends print 20-110; also called recombinant DCD; source: E. coli BL21 (DE3) pLysS, purified; Triton X-114 extraction …) YDPEAASAPGSGNPCHEASAAQKENAGEDPGLARQAPKPRKQRSSLLEKGLDGAKKAVGGLGKLGKDAVEDLESVGKGAVHDVKDVLDSVL", "values": [{"measurement": "Kd", "setting": "[1]", "result": 58.8, "unit": "nM"}, {"measurement": "stoichiometry N", "setting": "[2]", "result": 2}, {"measurement": "Kd", "setting": "[3]", "result": 58.1, "unit": "nM"}]}
{"binder": "DCD-C34S analog (recombinant human dermcidin residue 20-110 with a Cys to Ser substitution at residue 34, N-terminal 6×His tag) (natural protein, UniProt P81605 20-110, looked up, dermcidin (DCD), human, residues 20-110 without the signal leader peptide, with C34S; Made by similar procedures as m1; source: E. coli BL21 (DE3) pLysS, purified to homogeneity; Triton X-114 extraction to remove endotoxins; not shown: His6, N-terminal, kept) YDPEAASAPGSGNPSHEASAAQKENAGEDPGLARQAPKPRKQRSSLLEKGLDGAKKAVGGLGKLGKDAVEDLESVGKGAVHDVKDVLDSVL", "values": [{"measurement": "Kd", "setting": "[3]", "result": 57.9, "unit": "nM"}]}
